According to patent US20250011428A1 (Novartis, published 2025):

B1: CD3_2_YTE (antibody, human IgG1, lambda)
heavy: EVQLVESGGGLVQPGGSLKLSCAASGFTFNTYAMNWVRQASGKGLEWVGRIRSKYNNYATYYADSVKDRFTISRDDSKSTLYLQMNSLKTEDTAVYYCVRHGNFGNSYVSWFAYWGQGTLVTVSSASTKGPSVFPLAPSSKSTSGGTAALGCLVKDYFPEPVTVSWNSGALTSGVHTFPAVLQSSGLYSLSSVVTVPSSSLGTQTYICNVNHKPSNTKVDKRVEPKSCDKTHTCPPCPAPELCCHPSVFLFPPKPKDTLYITREPEVTCVVVGLRHEDPEVKFNWYVDGVEVHNAKTKPREEQYCGCYRVVSVLTVLHQDWLNGKEYKCKVSNKALPAPIEKTISKAKGQPREPQVYTLPPSRDELTKNQVSLTCLVKGFYPSDIAVEWESNGQPENNYKTTPPVLDSDGSFFLYSKLTVDKSRWQQGNVFSCSVMHEALHNHYTQKSLSLSPGK
light: QAVVTQEPSLTVSPGGTVTLTCRSSTGAVTTSNYANWVQQKPGQAPRGLIGGTNKRAPWTPARFSGSLLGDKAALTLSGAQPEDEAEYFCALWYSNLWVFGGGTKLTVLGQPKAAPSVTLFPPSSEELQANKATLVCLISDFYPGAVTVAWKADSSPVKAGVETTTPSKQSNNKYAASSYLSLTPEQWKSHRSYSCQVTHEGSTVEKTVAPTECS
notes: hIgG1
B2: CD3_8_YTE (antibody, human IgG1, lambda)
heavy: EVQLVESGGGLVQPGGSLKLSCAASGFTFNTYAMNWVRQASGKGLEWVGRIRSKYNNYATYYADSVKDRFTISRDDSKSTLYLQMNSLKTEDTAVYYCVRHGNFGNSYVSWFAYWGQGTLVTVSSASTKGPSVFPLAPSSKSTSGGTAALGCLVKDYFPEPVTVSWNSGALTSGVHTFPAVLQSSGLYSLSSVVTVPSSSLGTQTYICNVNHKPSNTKVDKRVEPKSCDKTHTCPPCPAPELLCGPSVFLFPPKPKDTLYITREPEVTCVVVDVSHEDPEVKFNWYVDGVEVHNAKTKPREEQYNSTYRVVSVLTVLHQDWLNGKEYKCKVSNKALPAPIEKTISKAKGQPREPQVYTLPPSRDELTKNQVSLTCLVKGFYPSDIAVEWESNGQPENNYKTTPPVLDSDGSFFLYSKLTVDKSRWQQGNVFSCSVMHEALHNHYTQKSLSLSPGK
light: QAVVTQEPSLTVSPGGTVTLTCRSSTGAVTTSNYANWVQQKPGQAPRGLIGGTNKRAPWTPARFSGSLLGDKAALTLSGAQPEDEAEYFCALWYSNLWVFGGGTKLTVLGQPKAAPSVTLFPPSSEELQANKATLVCLISDFYPGAVTVAWKADSSPVKAGVETTTPSKQSNNKYAASSYLSLTPEQWKSHRSYSCQVTHEGSTVEKTVAPTECS
notes: hIgG1
B3: CD3_5 (antibody, human IgG1, lambda)
heavy: EVQLVESGGGLVQPGGSLKLSCAASGFTFNTYAMNWVRQASGKGLEWVGRIRSKYNNYATYYADSVKDRFTISRDDSKSTLYLQMNSLKTEDTAVYYCVRHGNFGNSYVSWFAYWGQGTLVTVSSASTKGPSVFPLAPSSKSTSGGTAALGCLVKDYFPEPVTVSWNSGALTSGVHTFPAVLQSSGLYSLSSVVTVPSSSLGTQTYICNVNHKPSNTKVDKRVEPKSCDKTHTCPPCPAPELCCGPSVFLFPPKPKDTLMISRTPEVTCVVVDVSHEDPEVKFNWYVDGVEVHNAKTKPREEQYCSCYRVVSVLTVLHQDWLNGKEYKCKVSNKALPAPIEKTISKAKGQPREPQVYTLPPSRDELTKNQVSLTCLVKGFYPSDIAVEWESNGQPENNYKTTPPVLDSDGSFFLYSKLTVDKSRWQQGNVFSCSVMHEALHNHYTQKSLSLSPGK
light: QAVVTQEPSLTVSPGGTVTLTCRSSTGAVTTSNYANWVQQKPGQAPRGLIGGTNKRAPWTPARFSGSLLGDKAALTLSGAQPEDEAEYFCALWYSNLWVFGGGTKLTVLGQPKAAPSVTLFPPSSEELQANKATLVCLISDFYPGAVTVAWKADSSPVKAGVETTTPSKQSNNKYAASSYLSLTPEQWKSHRSYSCQVTHEGSTVEKTVAPTECS
notes: hIgG1
B4: CD3_11 (antibody, human IgG1, lambda)
heavy: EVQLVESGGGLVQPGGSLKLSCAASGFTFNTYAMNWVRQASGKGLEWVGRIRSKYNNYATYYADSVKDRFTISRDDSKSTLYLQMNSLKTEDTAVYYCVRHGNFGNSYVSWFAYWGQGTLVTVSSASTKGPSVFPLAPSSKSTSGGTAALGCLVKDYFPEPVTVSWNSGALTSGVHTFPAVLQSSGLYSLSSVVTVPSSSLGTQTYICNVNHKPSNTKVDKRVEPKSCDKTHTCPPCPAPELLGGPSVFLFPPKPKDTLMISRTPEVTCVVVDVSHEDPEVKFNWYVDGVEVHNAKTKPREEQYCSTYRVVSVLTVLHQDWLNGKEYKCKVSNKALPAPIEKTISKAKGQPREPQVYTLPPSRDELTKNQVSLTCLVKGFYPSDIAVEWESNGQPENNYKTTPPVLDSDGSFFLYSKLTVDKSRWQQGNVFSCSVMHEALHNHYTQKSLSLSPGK
light: QAVVTQEPSLTVSPGGTVTLTCRSSTGAVTTSNYANWVQQKPGQAPRGLIGGTNKRAPWTPARFSGSLLGDKAALTLSGAQPEDEAEYFCALWYSNLWVFGGGTKLTVLGQPKAAPSVTLFPPSSEELQANKATLVCLISDFYPGAVTVAWKADSSPVKAGVETTTPSKQSNNKYAASSYLSLTPEQWKSHRSYSCQVTHEGSTVEKTVAPTECS
notes: hIgG1
B5: CD3_10_YTE (antibody, human IgG1, lambda)
heavy: EVQLVESGGGLVQPGGSLKLSCAASGFTFNTYAMNWVRQASGKGLEWVGRIRSKYNNYATYYADSVKDRFTISRDDSKSTLYLQMNSLKTEDTAVYYCVRHGNFGNSYVSWFAYWGQGTLVTVSSASTKGPSVFPLAPSSKSTSGGTAALGCLVKDYFPEPVTVSWNSGALTSGVHTFPAVLQSSGLYSLSSVVTVPSSSLGTQTYICNVNHKPSNTKVDKRVEPKSCDKTHTCPPCPAPELLGGPSVFLFPPKPKDTLYITREPEVTCVVVDVSHEDPEVKFNWYVDGVEVHNAKTKPREEQYNSCYRVVSVLTVLHQDWLNGKEYKCKVSNKALPAPIEKTISKAKGQPREPQVYTLPPSRDELTKNQVSLTCLVKGFYPSDIAVEWESNGQPENNYKTTPPVLDSDGSFFLYSKLTVDKSRWQQGNVFSCSVMHEALHNHYTQKSLSLSPGK
light: QAVVTQEPSLTVSPGGTVTLTCRSSTGAVTTSNYANWVQQKPGQAPRGLIGGTNKRAPWTPARFSGSLLGDKAALTLSGAQPEDEAEYFCALWYSNLWVFGGGTKLTVLGQPKAAPSVTLFPPSSEELQANKATLVCLISDFYPGAVTVAWKADSSPVKAGVETTTPSKQSNNKYAASSYLSLTPEQWKSHRSYSCQVTHEGSTVEKTVAPTECS
notes: hIgG1

Assays:
[1] = biological target: T1, recombinant human hFcγR1a (human, UniProt P12314 16-288, limits assumed); assay: SPR Biacore T200; IgG amine-coupled on CM5, receptor as analyte; response normalized to parental (=100);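 note: measured at room temperature in pH 7.6 phosphate buffer with Tween 20, double-referenced sensorgrams, maximum response taken as binding capacity at saturation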
T1 construct: recombinant, analyte in SPR; also called FcγRI
T1 sequence (P12314 16-288 limits assumed): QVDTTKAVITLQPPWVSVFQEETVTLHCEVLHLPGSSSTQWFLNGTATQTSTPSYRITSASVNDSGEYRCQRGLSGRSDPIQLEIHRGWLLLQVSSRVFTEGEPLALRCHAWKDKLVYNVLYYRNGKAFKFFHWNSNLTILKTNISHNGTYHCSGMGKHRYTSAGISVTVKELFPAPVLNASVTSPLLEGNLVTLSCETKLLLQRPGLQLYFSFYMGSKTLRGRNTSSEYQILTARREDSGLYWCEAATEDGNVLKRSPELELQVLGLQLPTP
Method: (§1) Kinetics and binding capacity were measured on a BIAcore® T200 instrument (GE Healthcare, Glattbrugg, Switzerland) at room temperature, with proteins diluted in running buffer 10 mM NaP, 150 mM NaCl, 0.05% Tween 20, pH7.6. A CM5 sensor chip (Sensor Chip SA, GE Healthcare Life Sciences) was used to immobilized engineered immunoglobulins by amine coupling. Then, recombinant human hFcγR1a, or recombinant human hFcγR3a (F158V), or recombinant human hFcRn, or hC1q was used as the analyte.
(§2) Binding data were acquired by subsequent injection of analyte dilution series on the reference and measuring flow cells. Zero concentration samples (running buffer only) were included to allow double referencing during data evaluation. For data evaluation, doubled referenced sensorgrams were analyzed and the maximum response reached during the experiment was monitored. Maximum response describes the binding capacity of the surface in terms of the response at saturation. Finally, measured maximum responses were normalized to the one measured using parental immunoglobulin (not engineered).

hCD3epsilon-FC antigen [2] = biological target: T2, hCD3epsilon-FC antigen (human, UniProt P07766 23-126); assay: SPR Biacore T200; hCD3epsilon-FC amine-coupled on CM5, IgG as analyte; set-up: unit not given here
T2 construct: immobilized by amine coupling on CM5; also called human CD3epsilon
T2 sequence (P07766 23-126 limits assumed): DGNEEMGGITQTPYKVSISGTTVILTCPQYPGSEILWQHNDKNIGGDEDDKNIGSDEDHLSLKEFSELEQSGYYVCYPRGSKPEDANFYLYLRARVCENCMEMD

hCD3epsilon-FC antigen [3] = biological target: T2, hCD3epsilon-FC antigen; assay: SPR Biacore T200; hCD3epsilon-FC amine-coupled on CM5, IgG as analyte; 1:1 model, apparent KD (bivalent analyte)
Method: A CM5 sensor chip (Sensor Chip SA, GE Healthcare Life Sciences) was used to immobilize hCD3epsilon-FC antigen by amine coupling. Then, engineered anti-CD3 hIgG1 were used as the analyte.
Binding data were acquired by subsequent injection of analyte dilution series on the reference and measuring flow cells. Zero concentration samples (running buffer only) were included to allow double referencing during data evaluation. For data evaluation, doubled referenced sensorgrams were analyzed by applying a 1:1 binding model analysis to generate the equilibrium dissociation constant (KD). Binding constant described Table 7 are considered as apparent KD since immunoglobulins used as analyte are bivalent for the immobilized antigen. In addition, maximum response reached during the experiment was monitored. Maximum response describes the binding capacity of the surface in terms of the response at saturation. Finally, measured maximum responses were normalized to the one measured using parental immunoglobulin (not engineered).

recombinant human hFcRn = biological target: T3, recombinant human hFcRn (human, UniProt P55899 24-297; P61769 21-119); assay: SPR Biacore T200; IgG amine-coupled on CM5, hFcRn as analyte; response normalized to parental (=100)
T3 construct: FcRn is normally a heterodimer with it
T3 sequence (P55899 24-297 limits assumed, chain 1 of 2): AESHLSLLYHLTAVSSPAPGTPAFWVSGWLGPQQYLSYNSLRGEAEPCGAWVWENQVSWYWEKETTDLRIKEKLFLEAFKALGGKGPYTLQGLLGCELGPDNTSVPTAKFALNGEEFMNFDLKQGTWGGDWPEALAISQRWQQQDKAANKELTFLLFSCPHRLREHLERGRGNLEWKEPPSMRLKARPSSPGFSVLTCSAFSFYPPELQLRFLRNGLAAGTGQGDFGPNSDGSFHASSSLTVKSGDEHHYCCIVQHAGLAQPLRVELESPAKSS
T3 sequence (P61769 21-119 limits assumed, chain 2 of 2): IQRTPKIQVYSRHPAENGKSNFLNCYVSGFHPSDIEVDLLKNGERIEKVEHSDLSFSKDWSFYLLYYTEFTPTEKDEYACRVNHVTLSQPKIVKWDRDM
Method: as §1, §2

[4] = biological target: T4, recombinant human hFcγR3a (F158V) (human, UniProt P08637 17-208); assay: SPR max response, normalized to parental (=100)
T4 construct: also called FcγRIII
T4 sequence (P08637 17-208 F176V): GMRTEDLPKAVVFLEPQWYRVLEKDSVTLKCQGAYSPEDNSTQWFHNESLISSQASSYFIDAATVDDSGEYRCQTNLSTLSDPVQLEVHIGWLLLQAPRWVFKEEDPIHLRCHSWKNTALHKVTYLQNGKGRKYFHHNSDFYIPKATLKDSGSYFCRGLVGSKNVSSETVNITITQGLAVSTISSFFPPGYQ
Method: as §1, §2

hC1q = hC1q (human, UniProt P02745 23-245; P02746 28-253; P02747 29-245); assay: SPR max response, normalized to parental (=100)
Chain of hC1q (P02745 23-245 limits assumed, chain 1 of 3): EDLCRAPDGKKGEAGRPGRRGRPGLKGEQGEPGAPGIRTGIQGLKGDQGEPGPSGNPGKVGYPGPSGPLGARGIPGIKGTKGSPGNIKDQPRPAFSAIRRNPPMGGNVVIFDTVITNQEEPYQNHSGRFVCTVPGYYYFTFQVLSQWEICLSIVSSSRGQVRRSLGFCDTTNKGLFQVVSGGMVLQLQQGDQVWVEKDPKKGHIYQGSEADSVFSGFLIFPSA
Chain of hC1q (P02746 28-253 limits assumed, chain 2 of 3): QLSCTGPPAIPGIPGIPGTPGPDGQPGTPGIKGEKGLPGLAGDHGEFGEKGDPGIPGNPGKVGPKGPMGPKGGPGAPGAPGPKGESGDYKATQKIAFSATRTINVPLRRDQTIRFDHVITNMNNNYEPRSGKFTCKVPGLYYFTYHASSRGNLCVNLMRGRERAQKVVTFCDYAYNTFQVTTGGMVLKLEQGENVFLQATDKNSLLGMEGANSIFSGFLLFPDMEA
Chain of hC1q (P02747 29-245 limits assumed, chain 3 of 3): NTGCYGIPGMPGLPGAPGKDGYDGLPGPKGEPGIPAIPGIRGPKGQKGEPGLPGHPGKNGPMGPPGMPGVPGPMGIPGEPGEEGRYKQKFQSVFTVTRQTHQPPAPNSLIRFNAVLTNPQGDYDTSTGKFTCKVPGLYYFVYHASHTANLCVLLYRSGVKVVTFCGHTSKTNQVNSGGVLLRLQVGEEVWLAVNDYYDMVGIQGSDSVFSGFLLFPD
Method: as §1, §2

[5] = biological target: T4, recombinant human hFcγR3a (F158V); assay: SPR Biacore T200; IgG amine-coupled on CM5, receptor as analyte; response normalized to parental (=100);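 note: measured at room temperature in pH 7.6 phosphate buffer with Tween 20, double-referenced sensorgrams, maximum response taken as binding capacity at saturation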
Method: as §1, §2

Binder | Maximum response at 100 nM hFcγR1a (RU) [1] [RU] | Maximum response at 125 nM hIgG1 (hCD3epsilon-FC antigen [2]) | Kd (hCD3epsilon-FC antigen [3]) [nM] | Maximum response at 1840 nM hFcRn (RU) (recombinant human hFcRn) | binding result [4] | binding result (hC1q) | Maximum response at 300 nM hFcγR3a F158V (RU) [5] [RU]
B1 | 3 | 371 | 2.3 | 340 | no binding (tested: 300 nM hFcγR3a F158V) | – | –
B2 | 2 | – | – | 604 | – | no binding (tested: 20 nM hC1q) | –
B3 | 7 | 365 | 3.76 | – | – | no binding (tested: 20 nM hC1q) | 22
B4 | 19 | – | – | 92 | – | no binding (tested: 20 nM hC1q) | –
B5 | – | – | – | 280 | – | no binding (tested: 20 nM hC1q) | –
